Source: PMC12528321

T1: AmMIXTA (Antirrhinum majus, UniProt Q38739 1-321)
T1 sequence: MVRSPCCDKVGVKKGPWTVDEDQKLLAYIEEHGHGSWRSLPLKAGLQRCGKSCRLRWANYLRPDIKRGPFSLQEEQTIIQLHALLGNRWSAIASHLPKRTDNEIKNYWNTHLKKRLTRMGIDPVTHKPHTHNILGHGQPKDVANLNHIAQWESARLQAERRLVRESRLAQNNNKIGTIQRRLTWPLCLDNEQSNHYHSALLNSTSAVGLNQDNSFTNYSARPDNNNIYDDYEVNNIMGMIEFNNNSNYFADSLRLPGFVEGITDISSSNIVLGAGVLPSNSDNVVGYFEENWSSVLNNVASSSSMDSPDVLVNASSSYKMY

T2: NtZFP8 (Nicotiana tabacum, UniProt A0A1S4DEM8 1-256)
T2 sequence: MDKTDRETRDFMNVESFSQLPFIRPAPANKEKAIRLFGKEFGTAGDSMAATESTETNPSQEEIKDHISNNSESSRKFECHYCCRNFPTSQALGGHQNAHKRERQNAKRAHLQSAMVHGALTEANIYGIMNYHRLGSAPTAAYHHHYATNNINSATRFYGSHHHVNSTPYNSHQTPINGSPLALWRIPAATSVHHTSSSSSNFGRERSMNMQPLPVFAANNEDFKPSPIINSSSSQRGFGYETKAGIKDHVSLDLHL


Columns and labels:
[1] = target: T1, AmMIXTA; experiment: EMSA
[2] = target: T2, NtZFP8; experiment: EMSA

Binder	binding result [1]	binding result [2]
MIXTA_EMSA_Probe (dsDNA) DNA 1: AGACGGATCCATTGCAATAGGTGGTGGTGGATCCTGTAGGAATTCGGA DNA 2: TCCGAATTCCTACAGGATCCACCACCACCTATTGCAATGGATCCGTCT	binds	
ZFP8_EMSA_Probe (dsDNA) DNA 1: AGACGGATCCATTGCAATAAGAAGAAGAAGATCCTGTAGGAATTCGGA DNA 2: TCCGAATTCCTACAGGATCTTCTTCTTCTTATTGCAATGGATCCGTCT		binds
